B1: 02-007, bivalent bispecific chimeric antibody that specifically binds to PD1 and CSF1R (bispecific antibody, human IgG1, kappa, L234A L235A)
heavy 1: QVQLVESGGGLVRPGGSLRLSCAASEFTFDDYAMSWVRQAPGKGLEWVSAISWNGGSTNYADSVKGRFTISRDNAKNSLYLQMNSLRAEDTALYYCASTVEVAHRRLYKYLEVWGQGTLVTVSSASTKGPSVFPLAPSSKSTSGGTAALGCLVKDYFPEPVTVSWNSGALTSGVHTFPAVLQSSGLYSLSSVVTVPSSSLGTQTYICNVNHKPSNTKVDKRVEPKSCDKTHTCPPCPAPEAAGGPSVFLFPPKPKDTLYITREPEVTCVVVDVSHEDPEVKFNWYVDGVEVHNAKTKPREEQYNSTYRVVSVLTVLHQDWLNGKEYKCKVSNKALPAPIEKTISKAKGQPREPQVCTLPPSRDELTKNQVSLSCAVKGFYPSDIAVEWESNGQPENNYKTTPPVLDSDGSFFLVSKLTVDKSRWQQGNVFSCSVMHEALHNHYTQKSLSLSPGK
light 1: QAGLTQPPSVSVAPGQTARITCGGNNIGSKSVHWYQQKPGQAPVLVVYGDSDRPSGIPERFSGSNSGNTATLTISRVEAGDEADYYCQVWDISSDHVVFGGGTQLTVLRTVAAPSVFIFPPSDEQLKSGTASVVCLLNNFYPREAKVQWKVDNALQSGNSQESVTEQDSKDSTYSLSSTLTLSKADYEKHKVYACEVTHQGLSSPVTKSFNRGEC
heavy 2: not shown
light 2: QPVLTQPLSVSVALGQTARITCGGNNIGSKNVHWYQQKPGQAPVLVIYRDSNRPSGIPERFSGSNSGNTATLTISRAQAGDEADYYCQVWDSSTAVFGTGTKLTVLQQRQVKPEAWLSSGPSPGPGRLQLVCHVSGFYPKPVWVMWMRGEQEQQGTQLGDILPNANWTWYLRATLDVADGEAAGLSCRVKHSSLEGQDIILYWRGSC
notes: Produced in CHO cells
B2: 02-004, bivalent bispecific chimeric antibody that specifically binds to PD1 and CD20 (bispecific antibody, human IgG1, kappa, L234A L235A)
heavy 1: QVQLVQSGGGLVQPGGSLRLSCAASGFTFSSYWMYWVRQVPGKGLEWVSAIDTGGGRTYYADSVKGRFAISRVNAKNTMYLQMNSLRAEDTAVYYCARDEGGGTGWGVLKDWPYGLDAWGQGTLVTVSSASTKGPSVFPLAPSSKSTSGGTAALGCLVKDYFPEPVTVSWNSGALTSGVHTFPAVLQSSGLYSLSSVVTVPSSSLGTQTYICNVNHKPSNTKVDKRVEPKSCDKTHTCPPCPAPEAAGGPSVFLFPPKPKDTLYITREPEVTCVVVDVSHEDPEVKFNWYVDGVEVHNAKTKPREEQYNSTYRVVSVLTVLHQDWLNGKEYKCKVSNKALPAPIEKTISKAKGQPREPQVCTLPPSRDELTKNQVSLSCAVKGFYPSDIAVEWESNGQPENNYKTTPPVLDSDGSFFLVSKLTVDKSRWQQGNVFSCSVMHEALHNHYTQKSLSLSPGK
light 1: QPVLTQPLSVSVALGQTARITCGGNNIGSKNVHWYQQKPGQAPVLVIYRDSNRPSGIPERFSGSNSGNTATLTISRAQAGDEADYYCQVWDSSTAVFGTGTKLTVLQRTVAAPSVFIFPPSDEQLKSGTASVVCLLNNFYPREAKVQWKVDNALQSGNSQESVTEQDSKDSTYSLSSTLTLSKADYEKHKVYACEVTHQGLSSPVTKSFNRGEC
heavy 2: not shown
light 2: DIQMTQSPSSLSASVGDRVTITCRASSSVSYMHWYQQKPGKAPKPLIYAPSNLASGVPSRFSGSGSGTDFTLTISSLQPEDFATYYCQQWSFNPPTFGQGTKVEIKQRQVKPEAWLSSGPSPGPGRLQLVCHVSGFYPKPVWVMWMRGEQEQQGTQLGDILPNANWTWYLRATLDVADGEAAGLSCRVKHSSLEGQDIILYWRGSC
notes: Produced in CHO cells

How the values were obtained:
[1] = target: T1, hIL4R-His, Interleukin-4 receptor subunit alpha (Homo sapiens) aa 27-227 (Homo sapiens, UniProt P24394 27-227); experiment: BLI Octet RED 384; antibody on ProA sensor, antigen 30 ug/ml
T1 construct: range 27-227; not shown: His tag as the name implies
T1 sequence (looked up): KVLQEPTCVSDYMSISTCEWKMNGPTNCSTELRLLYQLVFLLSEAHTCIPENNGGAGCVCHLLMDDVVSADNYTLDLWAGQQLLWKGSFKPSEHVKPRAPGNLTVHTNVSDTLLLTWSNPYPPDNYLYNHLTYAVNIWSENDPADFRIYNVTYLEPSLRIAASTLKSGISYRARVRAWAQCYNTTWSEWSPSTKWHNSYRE

[2] = target: T2, hCD38-Avi, ADP-ribosyl cyclase/cyclic ADP-ribose hydrolase 1 (Homo sapiens) aa 43-300 (Homo sapiens, UniProt P28907 43-300); experiment: as above
T2 construct: range 43-300; not shown: Avi tag as the name implies
T2 sequence (looked up): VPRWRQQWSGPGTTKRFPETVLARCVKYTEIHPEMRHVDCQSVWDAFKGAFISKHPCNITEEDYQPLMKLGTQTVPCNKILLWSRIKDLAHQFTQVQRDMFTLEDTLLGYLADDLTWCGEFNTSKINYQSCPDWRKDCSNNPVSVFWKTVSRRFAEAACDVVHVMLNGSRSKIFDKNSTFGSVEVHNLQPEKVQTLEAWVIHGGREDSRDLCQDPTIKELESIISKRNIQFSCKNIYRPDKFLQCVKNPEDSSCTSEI

[3] = target: T3, extracellular domain of the human PD-1 protein (hPD1ex-H6F) (Homo sapiens, UniProt Q15116 21-170); experiment: BLI Octet RED 384; antibody on ProA sensor, antigen in solution; 1:1 global fit
T3 construct: Molecular weight 20.6 kDa; made in CHO cells; also called hPDlex-H6F; not shown: C-terminal His and FLAG tags
T3 sequence (Q15116 21-170 limits assumed, form in doubt): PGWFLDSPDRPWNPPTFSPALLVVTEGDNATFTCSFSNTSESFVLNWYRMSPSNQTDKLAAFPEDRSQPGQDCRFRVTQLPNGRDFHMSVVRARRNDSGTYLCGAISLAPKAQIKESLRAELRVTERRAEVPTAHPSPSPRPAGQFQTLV
Experimental: (§1) The experiments were carried out using a kinetic buffer solution (hereinafter referred to as 1×KB) having the following formulation: 4.3 mM Na₂HPO₄; 136.9 mM NaCl, 1.5 mM KH₂PO₄; 2.7 mM KCl; the volume fraction of the added Tween 20 was 0.1%; the mass fraction of the added BSA (bovine serum albumin) was 0.1%; pH 7.4. Before the measurement, the ProA sensors were regenerated with a solution of 50 mM glycine and hydrochloric acid, pH 1.8 (5 seconds in the regenerating solution, 5 seconds in 1×KB, three repetitions). In the case of the hPD1ex-H6F and hCSF1R_His antigens, the Protein A (ProA) biosensors (ForteBio) were immersed in a solution with antibodies at a concentration of 10 μg/ml for 60 seconds to immobilize same. The baseline was recorded in 1×KB for 60 seconds. The sensors loaded with the antibody were then immersed into wells containing a solution of the target antigen (analyte) in a kinetic buffer for 90 seconds. Measurements were performed for solutions with hPDlex-H6F analyte at concentrations of 2.50 μg/ml (121.4 nM), 1.25 μg/ml (60.7 nM), 0.625 μg/ml (30.35 nM). […] Then we detected complex dissociation in 1×KB for 210 s for hPDlex-H6F, 300 s for hCSF1R_His.
(§2) All measurements were carried out at 30° C., orbital mixing speed was 1,000 revolutions per minute.
(§3) To obtain numerical values of kinetic constants (kₒₙ is the on/association rate constant, kdis is the dissociation rate constant, KD is the equilibrium dissociation constant or affinity constant), the resulting sensograms were processed according to the 1:1 interaction model using Global Fit (selection of one set of kon, kdis, KD constants to analyze several sensograms of different concentrations) of the ForteBio Octet Data Analysis 9.0 software.

[4] = target: T4, extracellular domain of the human CSF1R protein (hCSF1R_His) (Homo sapiens, UniProt P07333 20-512); experiment: as above
T4 construct: range 20-512; Molecular weight 57.4 kDa; made in CHO cells; also called hCSF1_His; not shown: C-terminal His and FLAG tags
T4 sequence (P07333 20-512 limits assumed): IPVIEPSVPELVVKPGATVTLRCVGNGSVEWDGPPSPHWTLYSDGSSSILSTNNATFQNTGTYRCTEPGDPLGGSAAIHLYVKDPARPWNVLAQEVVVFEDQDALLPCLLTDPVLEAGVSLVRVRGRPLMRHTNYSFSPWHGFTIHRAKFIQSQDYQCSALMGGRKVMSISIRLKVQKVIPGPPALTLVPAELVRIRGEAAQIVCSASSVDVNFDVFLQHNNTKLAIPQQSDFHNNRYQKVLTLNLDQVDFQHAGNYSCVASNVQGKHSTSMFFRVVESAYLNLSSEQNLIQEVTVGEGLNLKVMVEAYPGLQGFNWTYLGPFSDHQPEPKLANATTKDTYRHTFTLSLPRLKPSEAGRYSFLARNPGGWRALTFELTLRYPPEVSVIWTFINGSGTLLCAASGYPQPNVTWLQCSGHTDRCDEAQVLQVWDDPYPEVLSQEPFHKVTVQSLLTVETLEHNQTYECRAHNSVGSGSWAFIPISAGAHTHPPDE
Experimental: as §1, §2, §3

[5] = target: T5, Her3-H6F, Receptor tyrosine-protein kinase erbB-3 (Homo sapiens) aa 21-643 (Homo sapiens, UniProt P21860 21-643); experiment: BLI Octet RED 384; antibody on ProA sensor, antigen 30 ug/ml
T5 construct: not shown: His and FLAG tags implied by the name 'H6F'
T5 sequence (P21860 21-643 limits assumed): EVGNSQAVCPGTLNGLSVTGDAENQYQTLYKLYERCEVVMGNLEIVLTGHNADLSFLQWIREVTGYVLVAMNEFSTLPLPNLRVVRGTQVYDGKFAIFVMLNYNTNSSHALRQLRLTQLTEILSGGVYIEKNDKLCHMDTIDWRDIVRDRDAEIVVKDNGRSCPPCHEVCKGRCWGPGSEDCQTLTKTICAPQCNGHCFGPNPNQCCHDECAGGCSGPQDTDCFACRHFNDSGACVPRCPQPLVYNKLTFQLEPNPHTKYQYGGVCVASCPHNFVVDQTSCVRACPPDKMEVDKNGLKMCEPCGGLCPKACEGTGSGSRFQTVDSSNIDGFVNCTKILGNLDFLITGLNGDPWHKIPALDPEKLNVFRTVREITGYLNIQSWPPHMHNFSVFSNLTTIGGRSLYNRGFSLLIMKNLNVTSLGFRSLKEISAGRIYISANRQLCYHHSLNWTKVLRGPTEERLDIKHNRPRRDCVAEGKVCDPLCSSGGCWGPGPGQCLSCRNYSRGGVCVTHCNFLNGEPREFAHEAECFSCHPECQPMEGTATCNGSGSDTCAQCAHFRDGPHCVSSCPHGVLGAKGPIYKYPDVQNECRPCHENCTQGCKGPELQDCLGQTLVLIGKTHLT

[6] = target: T4, extracellular domain of the human CSF1R …; experiment: as above

Row | Binder | binding result [1] | binding result [2] | Kd [3] | koff [3] | kon [3] | Kd [4] | koff [4] | kon [4] | binding result [5] | binding result [6]
1 | B1 | no binding (tested: 1154 nM) | no binding (tested: 854.7 nM) | 4.49 nM | 0.00109 s⁻¹ | 242000 M⁻¹ s⁻¹ | 0.831 nM | 0.000314 s⁻¹ | 378000 M⁻¹ s⁻¹ | – | –
2 | B2 | no binding (tested: 1154 nM) | no binding (tested: 854.7 nM) | 3.49 nM | 0.000753 s⁻¹ | 216000 M⁻¹ s⁻¹ | – | – | – | no binding (tested: 420.8 nM) | no binding (tested: 522.5 nM)

— US20250340613A1 (JOINT STOCK COMPANY BIOCAD, published 2025)
